Experimental data reported in publication PMC3978877.

Target: TNFα (UniProt P06804)
Chain of UniProt P06804 (P06804 80-235): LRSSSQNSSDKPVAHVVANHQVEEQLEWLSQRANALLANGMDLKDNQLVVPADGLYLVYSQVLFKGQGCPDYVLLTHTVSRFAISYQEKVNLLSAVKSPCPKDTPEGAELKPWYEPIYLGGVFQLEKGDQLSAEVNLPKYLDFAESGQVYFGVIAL

B1: muTNFR-Fc (Fc fusion)
chain: VPAQVVLTPYKPEPGYECQISQEYYDRKAQMCCAKCPPGQYVKHFCNKTSDTVCADCEASMYTQVWNQFRTCLSCSSSCTTDQVEIRACTKQQNRVCACEAGRYCALKTHSGSCRQCMRLSKCGPGFGVASSRAPNGNVLCKACAPGTFSDTTSSTDVCRPHRICSILAIPGNASTDAVCAPESPTLSAIPRTLYVSQPEPTRSQPLDQEPGPSQTPSILTSLGSTPIIEQSTKGG
  inhibition of TNF-mediated killing of lung murine fibroblasts (TNFα trimer 5 pM, actinomycin D 2 μg/ml, muTNFR-Fc 50 nM to 0.1 pM, 24 h); half-maximal inhibitory concentration: 0.1 nM
